# Results: publication doi:10.1101/2024.07.03.601496
# What was measured:
# [1] = target: Exd (for EMSA) (Drosophila) (UniProt P40427); test: native gel or EMSA
# [2] = target: Hth (for EMSA) (Drosophila) (UniProt O46339); test: native gel or EMSA
# Sequence of UniProt O46339 (O46339 whole entry): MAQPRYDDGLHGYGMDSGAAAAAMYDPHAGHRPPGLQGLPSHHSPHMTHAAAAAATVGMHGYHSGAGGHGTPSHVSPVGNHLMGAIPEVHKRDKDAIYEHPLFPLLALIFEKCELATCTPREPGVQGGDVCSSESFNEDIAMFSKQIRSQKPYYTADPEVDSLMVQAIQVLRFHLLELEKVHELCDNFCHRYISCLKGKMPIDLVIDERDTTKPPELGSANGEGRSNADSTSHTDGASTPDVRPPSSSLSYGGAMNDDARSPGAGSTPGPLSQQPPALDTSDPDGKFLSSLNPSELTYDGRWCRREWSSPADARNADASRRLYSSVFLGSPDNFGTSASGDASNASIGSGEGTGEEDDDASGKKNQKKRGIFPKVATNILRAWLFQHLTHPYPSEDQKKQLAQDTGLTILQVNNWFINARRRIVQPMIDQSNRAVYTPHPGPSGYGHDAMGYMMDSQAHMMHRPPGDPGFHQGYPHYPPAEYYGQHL
# Sequence of UniProt P40427 (P40427 whole entry): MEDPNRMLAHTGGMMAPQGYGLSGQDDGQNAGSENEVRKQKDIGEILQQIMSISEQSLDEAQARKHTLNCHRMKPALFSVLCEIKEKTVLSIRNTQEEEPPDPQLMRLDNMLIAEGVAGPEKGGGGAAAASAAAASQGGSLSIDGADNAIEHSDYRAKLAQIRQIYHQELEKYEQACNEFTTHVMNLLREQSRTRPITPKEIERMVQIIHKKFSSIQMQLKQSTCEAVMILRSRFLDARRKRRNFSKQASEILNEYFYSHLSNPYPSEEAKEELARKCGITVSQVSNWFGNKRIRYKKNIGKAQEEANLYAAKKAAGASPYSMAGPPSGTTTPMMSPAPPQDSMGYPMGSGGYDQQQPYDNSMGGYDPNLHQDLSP
Substance,percent reduction of the trimeric complex against wild type Abd-B [1],percent reduction of the trimeric complex against wild type Abd-B [2]
"Abd-B^QR (QR>AA, for EMSA) (from UniProt P09087 1-493) (natural protein)",25%,25%
"Abd-B^W (W>A, for EMSA) (from UniProt P09087 1-493) (natural protein)",56%,56%
